From article PMC6262447

Target: NADPH-dependent thioredoxin reductase from Methanosarcina mazei strain Gö1 (Methanosarcina mazei strain Gö1)
Experiment: SEC; Sephacryl S-300 gel filtration in 10 mM Tris-HCl pH 7.6, 100 mM NaCl, 2 mM 2-mercaptoethanol; column calibrated with the Bio-Rad Gel Filtration Standard; monomer to dimer

## NADPH-dependent thioredoxin reductase from Methanosarcina mazei strain Gö1 (enzyme)
  stoichiometry N: 2
